{
  "source": "paper PMC5537068",
  "about": "“Endoglucanase activity at a second site in Pyrococcus furiosus triosephosphate isomerase—Promiscuity or compensation for a metabolic handicap?” (FEBS Open Bio, 2017)",
  "key": {"[1]": {"molecular_target": "the molecule itself", "test": "SEC; gel filtration chromatography in phosphate buffer"}, "[2]": {"molecular_target": "the molecule itself", "test": "AUC; sedimentation velocity, Tris buffer; data not shown; told in one sentence together with SDS/PAGE and gel filtration"}, "[3]": {"molecular_target": "the molecule itself", "test": "native gel or EMSA; native PAGE at 5, 7.5, 10, 12.5 and 15% acrylamide with HMW markers, Ferguson plot of molecular weight"}, "[4]": {"molecular_target": "the molecule itself", "test": "AUC; sedimentation velocity, phosphate buffer; data not shown; told in one sentence together with SDS/PAGE and gel filtration"}, "[5]": {"molecular_target": "the molecule itself", "test": "SDS/PAGE (zymogram); 12% SDS/PAGE under standard conditions, gel copolymerised with CM-cellulose; residual oligomers resist SDS and boiling; bands identified as PfuTIM by in-gel digestion and MALDI-TOF MS"}},
  "data": [
    {"protein": "Pyrococcus furiosus triosephosphate isomerase (PfuTIM) (enzyme, UniProt P62002 1-228, looked up, also called TPI; source: E. coli M15[pREP4], purified (Ni-NTA, gel filtration)) MAKLKEPIIAINFKTYIEATGKRALEIAKAAEKVYKETGVTIVVAPQLVDLRMIAESVEIPVFAQHIDPIKPGSHTGHVLPEAVKEAGAVGTLLNHSENRMILADLEAAIRRAEEVGLMTMVCSNNPAVSAAVAALNPDYVAVEPPELIGTGIPVSKAKPEVITNTVELVKKVNPEVKVLCGAGISTGEDVKKAIELGTVGVLLASGVTKAKDPEKAIWDLVSGIIKE", "values": [
      {"measurement": "stoichiometry N", "setting": "[1]", "value": 6},
      {"measurement": "stoichiometry N", "setting": "[2]", "value": 4},
      {"measurement": "stoichiometry N", "setting": "[3]", "value": 8},
      {"measurement": "stoichiometry N", "setting": "[4]", "value": 3},
      {"measurement": "stoichiometry N", "setting": "[5]", "value": 2}
    ]}
  ]
}
